{"source": "paper PMC6832617", "key": {"[1]": {"biological_target": "recombinant His-tagged NS1 protein of West Nile virus strain IS-98-ST1 (NS1^WNV) (West Nile virus, strain IS-98-ST1)", "experiment": "negative-stain electron microscopy"}, "[2]": {"biological_target": "recombinant His-tagged NS1 protein of West Nile virus strain IS-98-ST1 (NS1^WNV) (West Nile virus, strain IS-98-ST1)", "experiment": "SDS-PAGE without heat denaturation + Western blot"}}, "data": [{"substance": "recombinant His-tagged NS1 protein of West Nile virus strain IS-98-ST1 (NS1^WNV) (natural protein)", "values": [{"measurement": "stoichiometry N", "setting": "[1]", "result": 6}, {"measurement": "stoichiometry N", "setting": "[2]", "result": 2}]}]}
